Assay results as given in patent CN108264566A (SHANGHAI XINBAINUO BIOTECHNOLOGY CO LTD, dated 2018).

Experiments:
CD3-CD70BsM_D = target: T1, CD3-CD70BsM_D; assay: ELISA, plate coated with 1 μg/ml CD27-hFc, binder titrated from 10 μg/ml
T1 construct: Glycosylated, disulfide-linked homodimer through the IgD hinge linker; made in CHO-S cells; also called 二聚体形式的抗CD3/CD70双特异性分子

CD3-CD70BsM_M = target: T2, CD3-CD70BsM_M; assay: as above
T2 construct: made in CHO-S cells; also called 单体形式的抗CD3/CD70双特异性分子

CD3-B7RP-1BsM_D = target: T3, CD3-B7RP-1BsM_D; assay: ELISA, plate coated with 1 μg/ml ICOS-hFc, binder titrated from 10 μg/ml
T3 construct: Glycosylated, disulfide-linked homodimer through the IgD hinge linker; made in CHO-S cells; also called 二聚体形式的抗CD3/B7RP-1双特异性分子

CD3-B7RP-1BsM_M = target: T4, CD3-B7RP-1BsM_M; assay: as above
T4 construct: made in CHO-S cells; also called 单体形式的抗CD3/B7RP-1双特异性分子

CD3-OX40L BsM_M = target: T5, CD3-OX40L BsM_M; assay: ELISA, plate coated with 1 μg/ml OX40-hFc, binder titrated from 10 μg/ml
T5 construct: made in CHO-S cells; also called 单体形式的抗CD3/OX40L双特异性分子

CD3-OX40L BsM_D = target: T6, CD3-OX40L BsM_D; assay: as above
T6 construct: Glycosylated, disulfide-linked homodimer through the IgD hinge linker; made in CHO-S cells; also called 二聚体形式的抗CD3/OX40L双特异性分子

CD3-GITRL BsM_M = target: T7, CD3-GITRL BsM_M; assay: ELISA, plate coated with 1 μg/ml GITR-hFc, binder titrated from 10 μg/ml
T7 construct: made in CHO-S cells; also called 单体形式的抗CD3/GITRL双特异性分子

CD3-GITRL BsM_D = target: T8, CD3-GITRL BsM_D; assay: as above
T8 construct: Glycosylated, disulfide-linked homodimer through the IgD hinge linker; made in CHO-S cells; also called 二聚体形式的抗CD3/GITRL双特异性分子

B1: 人类CD27-hFc融合蛋白 (Fc fusion)
chain: ATPAPKSCPERHYWAQGKLCCQMCEPGTFLVKDCDQHRKAAQCDPCIPGVSFSPDHHTRPHCESCRHCNSGLLVRNCTITANAECACRNGWQCRDKECTECDPLPNPSLTARSSQALSPHPQPTHLPYVSEMLEARTAGHMQTLADFRQLPARTLSTHWPPQRSLCSSDFIR
notes: Bought fusion protein; also called 重组蛋白CD27-hFc; not shown: human Fc (hFc) of the bought fusion protein
Does B1 bind (CD3-CD70BsM_D)?
Result: binds

Does B1 bind (CD3-CD70BsM_M)?
Result: binds

B2: 人类ICOS-hFc融合蛋白 (Fc fusion)
chain: EINGSANYEMFIFHNGGVQILCKYPDIVQQFKMQLLKGGQILCDLTKTKGSGNTVSIKSLKFCHSQLSNNSVSFFLYNLDHSHANYYFCNLSIFDPPPFKVTLTGGYLHIYESQLCCQLK
notes: Bought fusion protein; also called 重组蛋白ICOS-hFc; not shown: human Fc (hFc) of the bought fusion protein
Does B2 bind (CD3-B7RP-1BsM_D)?
Result: binds

Does B2 bind (CD3-B7RP-1BsM_M)?
Result: binds

B3: 人类OX40-hFc融合蛋白 (Fc fusion)
chain: LHCVGDTYPSNDRCCHECRPGNGMVSRCSRSQNTVCRPCGPGFYNDVVSSKPCKPCTWCNLRSGSERKQLCTATQDTVCRCRAGTQPLDSYKPGVDCAPCPPGHFSPGDNQACKPWTNCTLAGKHTLQPASNSSDAICEDRDPPATQPQETQGPPARPITVQPTEAWPRTSQGPSTRPVEVPGGRA
notes: Bought fusion protein; also called 重组蛋白OX40-hFc; not shown: human Fc (hFc) of the bought fusion protein
What does the source list for B3?
binding result (CD3-OX40L BsM_M): binds; binding result (CD3-OX40L BsM_D): binds

B4: 人类GITR-hFc融合蛋白 (Fc fusion)
chain: QRPTGGPGCGPGRLLLGTGTDARCCRVHTTRCCRDYPGEECCSEWDCMCVQPEFHCGDPCCTTCRHHPCPPGQGVQSQGKFSFGFQCIDCASGTFSGGHEGHCKPWTDCTQFGFLTVFPGNKTHNAVCVPGSPPAEP
notes: Bought fusion protein; also called 重组蛋白GITR-hFc; not shown: human Fc (hFc) of the bought fusion protein
Which results are given for B4?
binding result (CD3-GITRL BsM_M): binds; binding result (CD3-GITRL BsM_D): binds
